Laboratory results as given in patent US20260184815A1.
Numbering of substitutions follows the chain as printed.

B1: M145-D11 (Fab, V domains shown)
VH: EVQLLESGGGLVQPGGSLRLSCAASGFTFSHYRMSWVRQAPGKGLEWVSSIYPSGGRTVYADSVKGRFTISRDNSKNTLYLQMNSLRAEDTAVYYCAKDKFEWRLLFRGIGNDAFDIWGQGTMVTVSS
VL: QSVLTQPPSVSVSPGQTASITCSGDKLGDKYTSWYQQRPGQSPVLVIYQDIKRPSGIPERFSGSNSGNTATLTISGTQAMDEADYYCQAWDSPNARVFGSGTKVTVL
B2: DX-2922 (antibody, V domains shown)
VH: EVQLLESGGGLVQPGGSLRLSCAASGFTFSHYLMTWVRQAPGKGLEWVSYISPSGGHTIYADSVKGRFTISRDNSKNTLYLQMNSLRAEDTAVYYCARVARGIAARSRTSYFDYWGQGTLVTVSS
VL: EIVLTQSPGTLSLSPGERATLSCRTSQFVNSNYLAWYQQKPGQAPRLLIYGASSRATGIPDRFSGSGSGTDFTLTISRLEPEDFAVYYCQQSSRTPWTFGQGTKVEIK
B3: X115-B07 (antibody, V domains shown)
VH: B2 VH with R98M, A100G, R101Q, A104R, A105G, D113A, Y114Q
VL: B2 VL
B4: M29-D09 (Fab, V domains shown)
VH: EVQLLESGGGLVQPGGSLRLSCAASGFTFSWYTMVWVRQAPGKGLEWVSYIYPSGGATFYADSVKGRFTISRDNSKNTLYLQMNSLRAEDTAVYYCAMGSYDYIWGFYSDHWGQGTLVTVSS
VL: QSALTQPPTVSVSPGQTARITCSGNKLGDKYVAWYQQKPGQSPMLVIYQDTKRPSRVSERFSGSNSANTATLSISGTQALDEADYYCQAWDSSIVIFGGGTRLTVL
B5: M06-D09 (antibody, V domains shown)
VH: EVQLLESGGGLVQPGGSLRLSCAASGFTFSFYYMVWVRQAPGKGLEWVSVIYPSGGITVYADSVKGRFTISRDNSKNTLYLQMNSLRAEDTAVYYCARDKWAVMPPYYYYAMDVWGQGTTVTVSS
VL: DIQMTQSPSSLSASVGDRVTITCRASQSIRNYLNWYQQKPGKAPNLLIYAASTLQSGVPARFSGSGSGTDFTLTISSLQPEDFATYYCQQLSGYPHTFGQGTKLEIK
B6: M35-G04 (antibody, V domains shown)
VH: EVQLLESGGGLVQPGGSLRLSCAASGFTFSYYHMSWVRQAPGKGLEWVSVISPSGGSTKYADSVKGRFTISRDNSKNTLYLQMNSLRAEDTAVYYCARGGSSDYAWGSYRRPYYFDYWGQGTLVTVSS
VL: DIQMTQSPATLSLSPGERATLSCRASQSVSSYLAWYQQKPGQAPRLLIYDASNRATGIPARFSGSGSGTDFTLTISSLEPEDFAVYYCQQRSNWPRGFTFGPGTKVDIK
B7: X115-A03 (antibody, V domains shown)
VH: EVQLLESGGGLVQPGGSLRLSCAASGFTFSHYIMMWVRQAPGKGLEWVSGIYSSGGITVYADSVKGRFTISRDNSKNTLYLQMNSLRAEDTAVYYCAWRRIGVPRRDSFDMWGQGTMVTVSS
VL: DIQMTQSPSTLSASVGDRVTITCRASQSISSWLAWYQQKPGKAPKLLIYKASTLESGVPSRFSGSGSGTEFTLTISSLQPDDFATYYCQQYNTYWTFGQGTKVEIK
B8: X115-G04 (antibody, V domains shown)
VH: B7 VH with W98Y, I101T, S108E, M111I
VL: B7 VL
B9: X115-F02 (Fab, V domains shown)
VH: B7 VH with W98Y, S108E, M111I
VL: B7 VL
B10: X115-D01 (antibody, V domains shown)
VH: EVQLLESGGGLVQPGGSLRLSCAASGFTFSIYSMHWVRQAPGKGLEWVSSIYPSRGMTWYADSVKGRFTISRDNSKNTLYLQMNSLRAEDTAVYYCAYRRTGIPRRDAFDIWGQGTMVTVSS
VL: B7 VL
B11: M6-D09 (antibody, V domains shown)
VH: B5 VH
VL: B5 VL

These binders were tested against pKal catalytic domain Mutant 4 (human) (UniProt P03952) (assay: equilibrium Ki,app, enzyme inhibition with fluorogenic substrate, tight binding fit).
Sequence of pKal catalytic domain Mutant 4 (human) (P03952 391-638, change not shown): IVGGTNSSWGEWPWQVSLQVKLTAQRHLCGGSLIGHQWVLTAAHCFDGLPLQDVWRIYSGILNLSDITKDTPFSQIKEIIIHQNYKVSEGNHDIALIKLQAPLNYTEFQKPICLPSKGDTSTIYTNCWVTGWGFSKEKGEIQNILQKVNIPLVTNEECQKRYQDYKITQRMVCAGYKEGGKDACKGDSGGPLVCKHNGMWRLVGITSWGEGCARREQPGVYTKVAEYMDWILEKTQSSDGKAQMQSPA

Ki [nM]	Binder
0.21	B1
0.25	B2
0.14	B3
0.39	B4
2.9	B5
0.8	B6
0.13	B7
0.3	B8
0.1	B9
0.12	B10

The binders below were run against pKal catalytic domain Mutant 4 (human) (UniProt P03952) (assay: equilibrium Ki,app, fluorogenic substrate, tight binding fit).

Ki [nM]	Binder
0.21	B1
0.25	B2
0.14	B3
0.39	B4
2.9	B11
0.8	B6
0.13	B7
0.3	B8
0.1	B9
0.12	B10
